{
  "source": "paper PMC3834827",
  "about": "“Crystal structure of the DdrB/ssDNA complex from Deinococcus radiodurans reveals a DNA binding surface involving higher-order oligomeric states” (Nucleic Acids Research, 2013)",
  "molecules": {"B1": {"name": "DdrB1-144 from Deinococcus radiodurans, 6His tag removed (protein used in crystallography) (domain or fragment, UniProt Q9RY80 1-144, looked up)", "chain": "MLQIEFITDLGARVTVNVEHESRLLDVQRHYGRLGWTSGEIPSGGYQFPIENEADFDWSLIGARKWKSPEGEELVIHRGHAYRRRELEAVDSRKLKLPAAIKYSRGAKVSDPQHVREKADGDIEYVSLAIFRGGKRQERYAVPG", "notes": "DdrB, Deinococcus radiodurans, residues 1-144 (stop codon introduced following residue 144), construct MJ4748 in pET151/D-Topo; Pentamer; Tag cleaved with TEV protease; also called DdrBDr; not shown: His6, N-terminal, cleaved"}},
  "key": {"[1]": {"target": "DdrB E51A mutant with N-terminal 6His tag (Deinococcus radiodurans) (UniProt Q9RY80)", "assay": "AUC; sedimentation velocity, 20°C, 42 krpm, 100 mM KCl, 20 mM Tris pH 8.0, loading concentrations 10 µM to 0.64 mM, absorbance and interference optics, no DNA; pentamer and assemblies of pentamers"}, "[2]": {"target": "DdrB R83A mutant with N-terminal 6His tag (Deinococcus radiodurans) (UniProt Q9RY80)", "assay": "AUC; sedimentation velocity, 20°C, 42 krpm, 100 mM KCl, 20 mM Tris pH 8.0, loading concentrations 10 µM to 0.64 mM, absorbance and interference optics, no DNA; pentamer and assemblies of pentamers"}, "[3]": {"target": "the molecule itself", "assay": "crystal structure; 740 µM DdrBDr with 160 µM 50b poly dT, hanging drop at 20°C; 2.30 Å; pentamer in the asymmetric unit, pentamer-pentamer interface by crystallographic symmetry"}, "DdrB1-144 [4]": {"target": "T1, DdrB1-144 (Deinococcus radiodurans, UniProt Q9RY80 1-144)", "T1 sequence": "B1 chain", "assay": "EMSA; pentamer, decamer and penta-decamer complexes; 10 uM DNA; FP: 20 mM Tris pH 8.0, 100 mM KCl, 200 nM DNA; EMSA: same plus 15% glycerol, 10 uM DNA; temperature not stated", "details": "protein: recombinant; tags: N-terminal 6His (pET151, not cleaved); chain copies: 5"}, "DdrB E51A [5]": {"target": "T2, DdrB E51A (Deinococcus radiodurans, UniProt Q9RY80 1-144, E51A)", "T2 sequence": "B1 chain with E51A", "assay": "EMSA; single pentamer-DNA complex only, no higher-order shifts; 10 uM DNA; FP: 20 mM Tris pH 8.0, 100 mM KCl, 200 nM DNA; EMSA: same plus 15% glycerol, 10 uM DNA; temperature not stated", "details": "protein: recombinant; tags: N-terminal 6His; chain copies: 5"}, "DdrB1-144, tag removed": {"target": "T3, DdrB1-144, tag removed (Deinococcus radiodurans, UniProt Q9RY80 1-144)", "T3 sequence": "B1 chain", "assay": "X-ray crystallography 2.30 A; MES pH 5.6, KCl, 10 mM MgCl2, PEG 8000; FP: 20 mM Tris pH 8.0, 100 mM KCl, 200 nM DNA; EMSA: same plus 15% glycerol, 10 uM DNA; temperature not stated", "details": "protein: recombinant; tags: 6His removed by TEV; chain copies: 5"}, "DdrB E51A [6]": {"target": "T2, DdrB E51A", "assay": "fluorescence anisotropy; 3 uM pentamer; full DNA binding activity retained; FP: 20 mM Tris pH 8.0, 100 mM KCl, 200 nM DNA; EMSA: same plus 15% glycerol, 10 uM DNA; temperature not stated", "details": "protein: recombinant; tags: N-terminal 6His; chain copies: 5; label: 5' 6-FAM"}, "DdrB W66A": {"target": "T4, DdrB W66A (Deinococcus radiodurans, UniProt Q9RY80 1-144, W66A)", "T4 sequence": "B1 chain with W66A", "assay": "fluorescence anisotropy; per pentamer; saturating anisotropy fixed to wild-type value; FP: 20 mM Tris pH 8.0, 100 mM KCl, 200 nM DNA; EMSA: same plus 15% glycerol, 10 uM DNA; temperature not stated", "details": "protein: recombinant; tags: N-terminal 6His; chain copies: 5; label: 5' 6-FAM"}, "DdrB1-144 [7]": {"target": "T1, DdrB1-144", "assay": "fluorescence anisotropy; per pentamer, A+B=AB model; FP: 20 mM Tris pH 8.0, 100 mM KCl, 200 nM DNA; EMSA: same plus 15% glycerol, 10 uM DNA; temperature not stated", "details": "protein: recombinant; tags: N-terminal 6His (pET151, not cleaved); chain copies: 5; label: 5' 6-FAM"}},
  "note": "Residue numbers refer to the chain shown, from its start.",
  "data": [
    {"molecule": "DdrB E51A mutant with N-terminal 6His tag (from UniProt Q9RY80 1-144) (domain or fragment)", "values": [
      {"measurement": "percent of the total signal from the pentamer", "setting": "[1]", "value": 88, "unit": "%"},
      {"measurement": "stoichiometry N", "setting": "[1]", "value": 5}
    ]},
    {"molecule": "DdrB R83A mutant with N-terminal 6His tag (from UniProt Q9RY80 1-144) (domain or fragment)", "values": [
      {"measurement": "percent of the total signal from the pentamer", "setting": "[2]", "value": 92, "unit": "%"},
      {"measurement": "stoichiometry N", "setting": "[2]", "value": 5}
    ]},
    {"molecule": "B1", "values": [
      {"measurement": "stoichiometry N", "setting": "[3]", "value": 5}
    ]},
    {"molecule": "TTTTTTTTTTTTTTTTTTTTTTTTTTTTTTTTTTTTTTTTTTTTTTTTTT (ssDNA)", "note": "[50b poly dT]", "values": [
      {"measurement": "binding result", "setting": "DdrB1-144 [4]", "value": "binds"},
      {"measurement": "binding result", "setting": "DdrB E51A [5]", "value": "binds"},
      {"measurement": "binding result", "setting": "DdrB1-144, tag removed", "value": "binds"}
    ]},
    {"molecule": "TTTTTTTTTTTTTTTTTTTT (ssDNA)", "note": "[20b poly dT]", "values": [
      {"measurement": "binding result", "setting": "DdrB E51A [6]", "value": "binds"},
      {"measurement": "Kd", "setting": "DdrB W66A", "value": 51, "unit": "µM"},
      {"measurement": "Kd", "setting": "DdrB1-144 [7]", "value": 3.6, "unit": "µM"}
    ]}
  ]
}
